Test results taken from patent publication US20040235157A1.

Molecular target: Type I interferon receptor (endogenous, on human promonocytic PIL5 cells derived from U937) (human) (UniProt P17181)
Assay: cell-based or functional assay

UniProt P17181, sequence (P17181 28-557, chain 1 of 2): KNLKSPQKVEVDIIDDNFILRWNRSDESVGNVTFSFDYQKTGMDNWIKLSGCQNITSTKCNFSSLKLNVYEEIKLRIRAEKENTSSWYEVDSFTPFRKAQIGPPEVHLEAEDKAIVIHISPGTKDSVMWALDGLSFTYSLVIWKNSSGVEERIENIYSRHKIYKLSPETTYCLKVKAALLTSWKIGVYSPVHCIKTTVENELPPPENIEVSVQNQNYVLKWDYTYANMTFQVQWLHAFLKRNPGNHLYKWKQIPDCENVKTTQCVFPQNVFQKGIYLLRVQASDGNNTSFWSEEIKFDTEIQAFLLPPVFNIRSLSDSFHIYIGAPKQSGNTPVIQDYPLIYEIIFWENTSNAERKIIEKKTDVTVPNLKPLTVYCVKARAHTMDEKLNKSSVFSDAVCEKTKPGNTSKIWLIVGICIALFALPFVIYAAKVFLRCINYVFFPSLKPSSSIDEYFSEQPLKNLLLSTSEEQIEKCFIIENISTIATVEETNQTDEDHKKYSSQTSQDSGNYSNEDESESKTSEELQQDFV
UniProt P17181, sequence (P48551 27-515, chain 2 of 2, further chain): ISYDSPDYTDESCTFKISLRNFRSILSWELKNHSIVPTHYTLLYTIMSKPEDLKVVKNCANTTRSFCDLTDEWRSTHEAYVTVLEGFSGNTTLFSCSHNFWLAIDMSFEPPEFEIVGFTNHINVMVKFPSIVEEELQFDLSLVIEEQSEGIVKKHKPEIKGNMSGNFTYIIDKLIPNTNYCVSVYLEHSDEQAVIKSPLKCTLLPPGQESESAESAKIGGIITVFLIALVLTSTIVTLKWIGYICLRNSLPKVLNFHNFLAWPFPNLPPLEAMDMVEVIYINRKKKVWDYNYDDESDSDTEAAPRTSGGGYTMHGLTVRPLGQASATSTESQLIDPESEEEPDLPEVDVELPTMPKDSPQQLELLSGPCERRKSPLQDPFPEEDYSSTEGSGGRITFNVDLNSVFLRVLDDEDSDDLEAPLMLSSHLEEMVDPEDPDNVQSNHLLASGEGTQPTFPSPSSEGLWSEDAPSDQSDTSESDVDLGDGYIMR

Row | luciferase gene reporter assay using PIL5 cells (lowest detectable IFN activity) [IU/ml] | Substance
1 | < 1 | IFNβ (from UniProt P01574 22-187) (ligand)
2 | < 1 | human IFN α (standard preparation of human interferon alpha) (ligand)
